Measured values: the DeepSol protein solubility set

assay: soluble on expression in E. coli; label from the status in PepcDB or PDB records

| Sequence | soluble on expression in E. coli |
| --- | --- |
| MAPSQPTQNAQTVSSVMTETPTYTSSSRSVESTAGTIAASEEATMTLLENSSGDPGSDSGGARYSLNSLKVSEQAAANAVLKAVLNDVSYQEFADSSYLEITGTPSADGTWGISFGGPSESASVEFSDGSISFSPVDMTVPATRLPQMGAFYETLTEEQLGMLETGLAVSTVDSSQQEMLLDLVSNSIGLADTETTATAISKIRATLSETYLFGTPDGLTLALSGPHVDFEVSHQGSTAKITYRDPSTDTLTAEDRVDTASVAAAPPEVVLEHHHHHH | soluble |
| MTVERIAEQPLDSELGHFNLITYRDSVEGDVHLALTLGKVCAEEPTLVRVHNMDPLRDLLQVNQPGRWSLRAAMTKVAEAGSGVVLLLGHQIGGDDLLAHVREIASAPAPAPKATTTYSTVGAGSQILRDLGVRKMRLLSAPMRFNAISGFDLEVVEYLPA | soluble |
| MDKIRYGIMSTAQIVPRFVAGLRESAQAEVRGIASRRLENAQKMAKELAIPVAYGSYEELCKDETIDIIYIPTYNQGHYSAAKLALSQGKPVLLEKPFTLNAAEAEELFAIAQEQGVFLMEAQKSVFLPITQKVKATIQEGGLGEILWVQSVTAYPNVDHIPWFYSREAGGGALHGSGSYPLQYLQYVLGKEIQEVTGTATYQQGATDSQCNLALKFAEGTLGNIFINVGLKIPSEMTICGTKGQIVIPNFWKTDCAYYTDAQGNTVKWSEQFTSEFTYEINHVNQCLQDKKLTSPVMTKELTIATVKIVESFYQEWFDNE | not soluble |
| MAVSFKVKERKVMINGQPAKIRYAQTLKTGDMDLSEICDLTSKISAVSEGDVRSIINTVTGLVITGLKQGRAISLGELGRFRISLSSKAAKEGEEFTVENIRRARVLFLPGGDIRRACRQIRLKGINMLRPGEQQGGTPSVPDSPEGGGEQGSGGGGL | not soluble |
| MGSDKIHHHHHHMNGKAVQLKEEADEPGWEVDPDDEWGVAVVETVGRQLKLRREALGMRAADFGTAVGYGEDMVYKIESGKRIPRPEFLDRADELLGAGGLLSAMKEDVKKVRYPKNVREIAKLEAQAVELGVYVGLSLHGLLQTPEHARALFEVWQPAYSPEEAERRMAARMARKAIFERSPAPALSFVQEEATLRRPVGGTMVWRQQLEHLLEVGQLRNVTLQVMPTNSEAHPGLSGRIEVLKFSDGTAVGRSDGAYNGRPISDPKQLRILELRYGTIRAQALPPRESLAFIEQLLGET | not soluble |
| MSLKNQIEKLLENFVPEGQQEKTDFKVFQDFAADEKNLNRSSIAHFTASVFVLNESHDKILGIYHKIYQSWGWVGGHADGNADLLAVAVKEVQEETGLRSFKKLSEMPISIEALPVFGHHHRKYGYVSAHIHLNVTFLFEAKESDSLQKNTDETGGLAWIPLEKFSEKSSEKEMRVIYDKIITRIINKEGHHHHHH | soluble |
| MQKALETKRLTLSYGETIIIDELNLEIPKGEITIFIGSNGCGKSTLLRSLARLLKPTTGDILLDNQAIQSMQTKQIARQMAILPQGPQAPEGLTVLQLVKQGRYPYQTWLKQWSEKDEEMVQNALAATGMTEFAERDVHALSGGQRQRAWIAMTLAQDTDIILLDEPTTYLDMTHQIEVLDLLFELNETEQRTIVMVLHDLNLACRYADNIVAIQDKQIYAQGKPEEVVDEKLVRDVFRMECQISTDPLFGTPLCIPHGKGRRVRKEVAHAMR | not soluble |
| MGSDKIHHHHHHMLLDLERFYQACNPSRPLIIGNASDRRYYIDFAAVRGGKIIEALQRTIARISPDEPTCQLFTGHLGCGKSTELLRLKAELEAQQFHVVYFESTHVLEMADVDVTDILLAIAGQVSESLEAMKIRLKSTYFTKLFGEIVDFLQTPIDLGVEAELSVGIAKITAKTKESPQLRRRLRDYLEPRTANILQSINQELLERATKELKTKGKKGLVVIVDNLDRVAIRPLPSGRSLPEYLFIQRGEQLRKLNCHVVYTIPLALTFSNDSAELQHRLGGGVAPKMLPMIPVRLRSGEIFPQGLAMLRQMVLARAFPDILPSDRLGLITEVFDSLETLDRLCLISGGHVRDLLGLLFDCLREQDPPFERECVDLVIQRQRDYRANAIDPQEWELIFQVVQQQRVRGDIEYHTLLRSLFVFEYRDHQGAWFAVNPVLAETEKFKSWLNDTHKQI | not soluble |
| MAHHHHHHMCGVIEGLWTRGGRVFHRYVRPSDPRRISAAAAAVHGITWETVQNCSPWPVVARELVAYMALVGADAPVSASAQLEAAQLGGQRAVHLPPLVAHNASFDARFLEHHLRRCGYQIFWHPRYPLTCTRQWAQVAYPHLANNLDALCAFLSIDWAADRAANGHDALTDATLTALLFLQMCRRWMERFGRGE | not soluble |
| MGSDKIHHHHHHMSSVSLQDFDAERIGLFHEDIKRKFDELKSKNLKLDLTRGKPSSEQLDFADELLALPGKGDFKAADGTDVRNYGGLDGIVDIRQIWADLLGVPVEQVLAGDASSLNIMFDVISWSYIFGNNDSVQPWSKEETVKWICPVPGYDRHFSITERFGFEMISVPMNEDGPDMDAVEELVKNPQVKGMWVVPVFSNPTGFTVTEDVAKRLSAMETAAPDFRVVWDNAYAVHTLTDEFPEVIDIVGLGEAAGNPNRFWAFTSTSKITLAGAGVSFFLTSAENRKWYTGHAGIRGIGPNKVNQLAHARYFGDAEGVRAVMRKHAASLAPKFNKVLEILDSRLAEYGVAQWTVPAGGYFISLDVVPGTASRVAELAKEAGIALTGAGSSYPLRQDPENKNLRLAPSLPPVEELEVAMDGVATCVLLAAAEHYAN | not soluble |
| MFVLNIFSTTHKQRGLNRASCPPLGNYSNNHTLAYRVKCISEETRDSNSLVSSLNRKLWKTSVAGSDIPMIYSPFLEDMQNTLFASFETVEDYPLSEFLASAQSSKKPARIESWCYQCPKFRKIRLTYLDAGVAAQVFNAVWYPISSLELPILGVDFLSFGGKNVLCVMDFQPLMNDQYYLDKYIQPLHPIRERYADLAGRMSSRFYDENRFFSKELLFGRFDSTKPIYERLFPAFREYLDLYITLAKQTVEDDKSRSIIWQLQCEYDRYSAEKDPAMSLFRSYFGSTWAHRFVYEFLFENSRYESSLDNKT | soluble |
| MSKIKIAIIGNGMVGHRFIEDLLDKADKDQFDITVFCEEPRIAYDRVHLSSYFSHHTAEELSLVREGFYEKQGVKVLVGERAITINRAEKVIHSNSGRSLYYDKLVMATGSYPWIPPIKGSEGQDCFVYRTIEDLNAIEACTRRSKRGAVIGGGLLGLEAAGALKSLGVETHVIEFAPVLMAEQLDPMGGDQLRQKIERMGVRVHTGKNTQEIVHSGQNSRKTMLFADGTQLEVDFIVFSTGIRPQDKLANQCGLATARRGGIAINDYCQTSDPDVYAIGECASWQERTFGLVAPGYKMAQVAADHLLGRENAFLGADMSAKLKLLGVDVGGIGDAHGRTEGARSYVYLDESKEIYKRLVVSADNKTLLGAVLVGDTTDYGNLLQLALNNITLPENPDSLILPAHAGNKPTIGVDSLPDSAQICSCFDVTKGDIIRAIGQGCQTVAALKSATKAGTGCGGCIPLVTQVLNAELSKQGIEVNNHLCEHFAYSRQELYHLIRVEGIKTFTELREKYGKGYGCEVCKPTVGSLLASCWNEYVLEPQHTPLQDTNDNFLGNIQKDGTYSIIPRSPGGEITPDGLLVVGQIAKEYNLYTKLTGSQRIGMFGAQKDDLPAIWARLIDAGFETGHAYAKALRMAKTCVGSTWCRFGVGDSVGFGVALEHRYKGIRAPHKIKFGISGCTRECAEAQGKDVGIIATENGWNLYVCGNGGMKPRHADLLAADLDEETLMRYLDRFMMFYIRTADKLQRTSVWLESLEGGIRYLQLVILEDKLGINDQLEAEIARLRDKVACEWKATVENPAAQVRFAHFINSSLRDPNVQVVREREQHRPARPDERIPVRVLELEDNA | not soluble |
| MGSDKIHHHHHHMITNTHLLISYIVYKNLYNNFNFKLDMAAFALGNIKPDFINKEIKCSHTLNESLDSLIEYSNKLVKYNNSIRKFSLALGIVCHYICDYFCIYHRDGNEKKGILEHLIYEVKLDSNFTMMFLKGKLNYFGCRDYGGSIKKIIFNIEKEYKLEEKDFKRDIKYALFAAIESSKFIVYSSKLYGN | not soluble |
| MGSDKIHHHHHHMNMFLGEGWQVKPAGGATGEAYIAEQGEQRLFLKRNSSPFLAVLSAEGIVPKLLWTKRLENGDVITAQRWVYGRELKAFEMKEPNVAHLLAKIHHSVELLDMFKRMGNDMLTPQRIIDDLKASMKRHECDDLLFQKGLKFLQTQQEAVNQEQYVVCHCDINHNNWMMSDAGELYLIDWDGATVADPALDLGLLLYSYVPRHEWKTWLANYGLEMSDHLLLRMHWYVVSQTISVMLSNMDRGKHAEAETWQDFLKTLLDDSF | not soluble |
